Each binder was assayed against T1, SARS-CoV S protein RBD antigen (SARS-CoV, UniProt P59594 306-527) (assay: ELISA, 0.1 μg antigen coated, IgG4).
T1 construct: also called SARS-CoV RBD

Binder | binding result
RB6 (antibody, V domains shown, also called clone RB6; antibody (iii)) VH: EVQLLESGGGLVQPGGSLRLSCAASGFTFSSYDMSWVRQAPGKGLEWVSGISYSGGSTYYADSVKGRFTISRDNSKNTLYLQMNSLRAEDTAVYYCARDVNFVPLVTFDYWGQGTLVTVSS VL: QSVLTQPPSASGTPGQRVTLSCTGSSSNIGSNSVTWYQQLPGTAPKLLIYDDNQRPSGVPDRFSGSKSGTSASLAISGLRSEDEADYYCGTWDYSLSAYVFGGGTKLTVL | binds
RD10 (antibody, V domains shown, also called clone RD10; antibody (v)) VH: EVQLLESGGGLVQPGGSLRLSCAASGFTFSDYAMSWVRQAPGKGLEWVSAIYPGGGSTYYADSVKGRFTISRDNSKNTLYLQMNSLRAEDTAVYYCARNLFGFDYWGQGTLVTVSS VL: QSVLTQPPSASGTPGQRVTISCTGSSSNIGSNAVYWYQQLPGTAPKLLIYDDSNRPSGVPDRFSGSKSGTSASLAISGLRSEDEADYYCGSWDDSLSAYVFGGGTKLTVL | binds
RD3 (antibody, V domains shown, also called clone RD3; antibody (iv)) VH: EVQLLESGGGLVQPGGSLRLSCAASGFTFSDYAMSWVRQAPGKGLEWVSWIYSGSGNKYYADSVKGRFTISRDNSKNTLYLQMNSLRAEDTAVYYCARFPIARTSNSQSSYDGMDVWGQGTLVTVSS VL: QSVLTQPPSASGTPGQRVTISCSGSSSNIGSNAVSWYQQLPGTAPKLLIYADNKRPSGVPDRFSGSKSGTSASLAISGLRSEDEADYYCGAWDSSLNAYVFGGGTKLTVL | binds
